Experimental data taken from patent publication US11674967B2, “Method of identifying potential inhibitors of APO TNFα trimers” (UCB BIOPHARMA SRL, priority 2015, dated 2023).

T1: Mouse TNFα (Mus musculus, UniProt P06804)
T1 construct: made in house
T1 sequence (P06804 80-235 limits assumed): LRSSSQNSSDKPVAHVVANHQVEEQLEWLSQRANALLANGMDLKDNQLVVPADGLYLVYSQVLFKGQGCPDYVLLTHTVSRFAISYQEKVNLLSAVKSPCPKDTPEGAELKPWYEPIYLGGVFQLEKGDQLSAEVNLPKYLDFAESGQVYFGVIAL

B1: CA185_01979: conformation-selective antibody, light chain SEQ ID NO: 26, heavy chain SEQ ID NO: 27 (antibody)
heavy: EVHLVESGPGLVKPSQSLSLTCSVTGYSITNSYWDWIRKFPGNKMEWMGYINYSGSTGYNPSLKSRISISRDTSNNQFFLQLNSITTEDTATYYCARGTYGYNAYHFDYWGRGVMVTVSSAKTTPPSVYPLAPGSAAQTNSMVTLGCLVKGYFPEPVTVTWNSGSLSSGVHTFPAVLQSDLYTLSSSVTVPSSTWPSETVTCNVAHPASSTKVDKKIVPRDCGCKPCICTVPEVSSVFIFPPKPKDVLTITLTPKVTCVVVDISKDDPEVQFSWFVDDVEVHTAQTQPREEQFNSTFRSVSELPIMHQDWLNGKEFKCRVNSAAFPAPIEKTISKTKGRPKAPQVYTIPPPKEQMAKDKVSLTCMITDFFPEDITVEWQWNGQPAENYKNTQPIMDTDGSYFVYSKLNVQKSNWEAGNTFTCSVLHEGLHNHHTEKSLSHSPGK
light: DIQMTQSPASLSASLEEIVTITCQASQDIGNWLSWYQQKPGKSPHLLIYGTTSLADGVPSRFSGSRSGTQYSLKISGLQVADIGIYVCLQAYSTPFTFGSGTKLEIKRTDAAPTVSIFPPSSEQLTSGGASVVCFLNNFYPKDINVKWKIDGSERQNGVLNSWTDQDSKDSTYSMSSTLTLTKDEYERHNSYTCEATHKTSTSPIVKSFNRNEC
modifications: 1979 HC mIgG1 full; 1979 LC Kappa full

What was measured:
TNFα [1] = target: T2, TNFα (Homo sapiens, UniProt P01375); assay: SPR on Biacore 4000 against immobilised soluble TNFα; format: binding; settings: up to 100 μM
Method: In another experiment, BIO8898 was tested against the immobilised soluble form of CD40L and the soluble form of TNFα by SPR on a Biacore 4000 machine.

Mouse TNFα = target: T1, Mouse TNFα; assay: BIAcore antibody binding with mouse TNFα +/- compound
Method: (§1) Surface plasmon resonance was performed at 25° C. using a BIAcore T200 (GE Healthcare). Anti-Mouse Fc (Jackson 115-006-071) was immobilised on a […] Sensor Chip (GE Healthcare) via amine coupling chemistry to a capture level of 6000 response units. HBS-EP buffer (10 mM HEPES pH 7.4, 0.15 M NaCl, 3 mM EDTA, 0.05% (v/v) surfactant P20—GE Healthcare)+1% DMSO was used as the running buffer.
(§2) The surface was regenerated at a flow-rate of 10 μl/min by a 60 s injection of 40 mM HCl×2 and a 30 s 5 mM NaOH. Double referenced background subtracted binding curves were analysed using the T200 Evaluation software (version 1.0) following standard procedures. Kinetic parameters were determined from the fitting algorithm.

[2] = target: human TNFα complexed with compound (15) (Homo sapiens, UniProt P01375); assay: Size exclusion chromatography of Fab with human TNFα complexed with compound (15); format: binding; settings: mouse Fab fragments
TNFα [3] = target: T2, TNFα; assay: BIAcore antibody binding with human TNFα +/- compound; parameters: made in house
Method: as §1, §2

T2 sequence (P01375 77-233 limits assumed): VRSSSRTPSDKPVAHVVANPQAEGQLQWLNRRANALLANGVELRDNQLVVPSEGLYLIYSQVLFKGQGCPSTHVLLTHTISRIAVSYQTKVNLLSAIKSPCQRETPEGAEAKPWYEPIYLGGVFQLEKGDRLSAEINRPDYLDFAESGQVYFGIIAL
Sequence of human TNFα complexed with compound (15) (P01375 77-233 limits assumed, one chain of several): as the sequence (P01375 77-233 limits assumed) above

Molecule | binding to TNFα (TNFα [1]) | Kd (Mouse TNFα; Mouse TNFα + compound (15)) | ka (Mouse TNFα; Mouse TNFα + compound (15)) | kd (Mouse TNFα; Mouse TNFα + compound (15)) | ka (Mouse TNFα; Mouse TNFα + compound (39)) | kd (Mouse TNFα; Mouse TNFα + compound (39)) | Kd (Mouse TNFα; Mouse TNFα apo) | ka (Mouse TNFα; Mouse TNFα apo) | kd (Mouse TNFα; Mouse TNFα apo) | stoichiometry of Fab binding to trimer-compound complex [2] | ka (TNFα [3]; Human TNFα + compound (15)) | kd (TNFα [3]; Human TNFα + compound (15)) | ka (TNFα [3]; Human TNFα + compound (39)) | kd (TNFα [3]; Human TNFα + compound (39)) | ka (TNFα [3]; Human TNFα apo) | kd (TNFα [3]; Human TNFα apo)
O=C(NCc1cccc(-c2ccccc2)c1)c1cc(-c2cc(C(=O)NC(C(=O)O)C3CCCCC3)nc(C(=O)N3CCCC3CN3CCCC3)c2)cc(C(=O)N2CCCC2CN2CCCC2)n1 (stereo not shown) [BIO8898] | no binding was detected | – | – | – | – | – | – | – | – | – | – | – | – | – | – | –
B1 | – | 0.38 nM | 160000 M⁻¹ s⁻¹ | 6.3e-05 s⁻¹ | 190000 M⁻¹ s⁻¹ | 3.5e-05 s⁻¹ | 27 nM | 72000 M⁻¹ s⁻¹ | 0.002 s⁻¹ | 1 Fab:1 TNFα trimer | 470000 M⁻¹ s⁻¹ | 1.6e-05 s⁻¹ | 570000 M⁻¹ s⁻¹ | 3.3e-05 s⁻¹ | 110000 M⁻¹ s⁻¹ | 0.00071 s⁻¹
